The results in this text go back to patent US12473372B2, “Inhibiting anti-ENPP1 antibodies” (The Regents of the University of California, priority 2020, dated 2025).

One experiment concerns the target T1, murine ENPP1 (Mus musculus, UniProt P06802).
T1 sequence (P06802 1-906): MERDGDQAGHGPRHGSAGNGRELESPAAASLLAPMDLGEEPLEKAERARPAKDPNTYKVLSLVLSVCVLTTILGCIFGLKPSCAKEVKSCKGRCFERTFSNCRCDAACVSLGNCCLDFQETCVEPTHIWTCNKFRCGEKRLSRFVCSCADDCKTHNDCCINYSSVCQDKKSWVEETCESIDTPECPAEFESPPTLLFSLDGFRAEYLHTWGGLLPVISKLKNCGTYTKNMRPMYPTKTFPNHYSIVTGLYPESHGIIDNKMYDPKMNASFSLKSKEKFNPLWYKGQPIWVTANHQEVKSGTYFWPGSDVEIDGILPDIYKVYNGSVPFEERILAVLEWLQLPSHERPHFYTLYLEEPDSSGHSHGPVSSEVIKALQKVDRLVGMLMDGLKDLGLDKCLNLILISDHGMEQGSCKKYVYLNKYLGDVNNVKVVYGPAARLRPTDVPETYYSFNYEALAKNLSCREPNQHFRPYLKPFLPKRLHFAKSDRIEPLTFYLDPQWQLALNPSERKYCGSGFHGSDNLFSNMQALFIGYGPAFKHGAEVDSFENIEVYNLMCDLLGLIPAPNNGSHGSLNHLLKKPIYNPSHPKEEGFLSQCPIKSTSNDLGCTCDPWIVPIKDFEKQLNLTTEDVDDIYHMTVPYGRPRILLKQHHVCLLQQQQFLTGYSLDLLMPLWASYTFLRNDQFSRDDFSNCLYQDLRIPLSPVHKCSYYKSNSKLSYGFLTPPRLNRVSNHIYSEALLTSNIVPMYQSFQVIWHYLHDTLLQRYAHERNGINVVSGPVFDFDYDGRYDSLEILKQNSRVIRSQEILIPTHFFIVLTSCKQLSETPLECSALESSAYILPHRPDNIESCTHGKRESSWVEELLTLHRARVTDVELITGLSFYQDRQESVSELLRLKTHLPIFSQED
Briefly: Cross reactivity of the antibody with murine ENPP1. Format: binding. Conditions: antibody raised against human recombinant protein. From the text:
The antibody was generated in collaboration with Lake Pharma using standard techniques of monoclonal antibody (mAb) generation, including immunization, collection and testing of hybridoma supernatants, cloning of hybridomas and further confirmation by multiple affinity assays followed by selection and production of the ENPP1mAb in a recombinant manner. […] The selected hybridoma has been sequenced and the recombinant monoclonal is produced on a CHO cell line with characterization by electropherogram and mass spectrometry. The molecular weight of the heavy chain is approximately 48 kD and the light chain 24 kD.

Experiment [1] has as its target T2, ENPP1 (Homo sapiens, UniProt P22413).
T2 sequence (P22413 1-925): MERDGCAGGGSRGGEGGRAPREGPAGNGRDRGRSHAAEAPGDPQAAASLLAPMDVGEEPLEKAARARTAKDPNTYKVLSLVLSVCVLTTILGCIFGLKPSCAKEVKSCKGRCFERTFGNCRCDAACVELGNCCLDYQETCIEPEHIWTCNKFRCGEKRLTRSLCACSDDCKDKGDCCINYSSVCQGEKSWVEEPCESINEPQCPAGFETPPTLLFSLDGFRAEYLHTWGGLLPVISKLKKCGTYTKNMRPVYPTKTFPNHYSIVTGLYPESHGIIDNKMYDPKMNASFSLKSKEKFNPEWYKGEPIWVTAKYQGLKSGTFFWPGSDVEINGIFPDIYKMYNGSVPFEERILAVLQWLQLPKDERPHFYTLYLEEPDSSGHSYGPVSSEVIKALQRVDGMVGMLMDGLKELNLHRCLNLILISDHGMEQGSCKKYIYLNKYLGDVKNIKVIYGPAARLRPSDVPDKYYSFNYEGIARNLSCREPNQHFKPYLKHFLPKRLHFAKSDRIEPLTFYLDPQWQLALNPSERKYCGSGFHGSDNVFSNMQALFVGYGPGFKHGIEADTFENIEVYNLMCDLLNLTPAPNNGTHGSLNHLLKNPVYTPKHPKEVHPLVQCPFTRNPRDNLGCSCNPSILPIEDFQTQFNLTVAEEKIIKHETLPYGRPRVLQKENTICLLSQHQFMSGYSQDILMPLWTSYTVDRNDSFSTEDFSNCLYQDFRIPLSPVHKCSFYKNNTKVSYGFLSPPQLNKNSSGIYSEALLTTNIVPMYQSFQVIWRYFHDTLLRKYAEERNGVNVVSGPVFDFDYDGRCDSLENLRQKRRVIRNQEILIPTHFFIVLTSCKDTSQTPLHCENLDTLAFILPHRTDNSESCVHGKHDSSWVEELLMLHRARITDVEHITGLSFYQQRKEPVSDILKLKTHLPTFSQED
Briefly: Flow cytometry binding of ENPP1 mAb to HEK cells over-expressing full length ENPP1. The arrangement: HEK cells over-expressing full length ENPP1 were incubated with varying concentrations of ENPP1 mAb; expressed in transfected cells; host or cells: HEK cells. To be noted: compared among several clones obtained; FIG. 15. The procedure: FIG. 15 is an exemplary affinity binding curve of ENPP1 monoclonal antibody (mAb) targeting human ENPP1. HEK cells over-expressing full length ENPP1 were incubated with varying concentrations of ENPP1 mAb followed by flow cytometry to determine mean fluorescence intensity as a readout for binding. […] IgG at an identical concentration is used as a control.

The subject of experiment [2] is ENPP1 mediated cell death of cardiac fibroblasts. Briefly: Co-culture of cardiac fibroblasts and cardiomyocytes with recombinant ENPP1 and ATP, cell death. The format is cell-based. To be noted: for cell death and detachment of cardiac fibroblasts: images after 48 hours, versus IgG control, FIG. 18A. The procedure: FIG. 18A are exemplary micrographs showing ENPP1 mAb inhibits ENPP1 mediated cell death. Cardiac fibroblasts (green) were co-cultured with cardiomyocytes (red) followed by the addition of vehicle (panel A) or recombinant ENPP1 and ATP and IgG (panel B) or recombinant ENPP1 and ATP and 12-J-4 ENPP1mAb (panel C). Images were taken after 48 hours and show cell death and detachment of cardiac fibroblasts in the IgG control well (panel B).
FIG. 18B is an exemplary graph showing results of flow cytometry measuring cell death (PI+) from the assay performed in FIG. 18A.
Next, functional data was collected for the ENPP1 mAb using an in vitro functional assay. As shown in the previous examples, ENPP1 expression induced cardiomyocytes to release pro-inflammatory and pro-apoptotic molecules that induce cell death in a host of cell types in the injury region. To test the ENPP1 mAb, an in vitro functional assay was performed in which cardiac fibroblasts were incubated with cardiomyocytes followed by the addition of a vehicle, recombinant ENPP1 and ATP and IgG, or recombinant ENPP1 and ATP and 12-J-4 ENPP1mAb.

The target in experiment [3] is T2, ENPP1. Kind of experiment: Luciferase based ATP assay of ENPP1 inhibition. Format: biochemical. Conditions: FIG. 17. The protocol:
FIG. 17 is an exemplary graph showing the effect of monoclonal Ab 12-J-4 in inhibiting ENPP1. In a luciferase based assay, ATP was incubated with luciferase in the presence or absence of ENPP1+/−the mAb or IgG control. In the absence of ENPP1, high luminescence signal is obtained.

B1: 12-J-4: Anti-ENPP1 monoclonal antibody, IgG1kappa, made recombinantly in CHO cells; CDRs SEQ ID NO: 1-6, VH SEQ ID NO: 7, VL SEQ ID NO: 9 (antibody, V domains shown)
VH: EVMLVESGGGLVKPGGSLKLSCVASGFTFSSYTMSWVRQTPEKRLEWVATISGGGGNTYYPDSVKGRFTISRDNAKNTLYLQMSSLRSEDTALYYCARRHYGSSPYAMDYWGQGTSVTVSS
VL: DIQMTQTTSSLSASLGDRVTISCRASQDISNYLNWYQQKPDGTVKLLIYHKTRLHSGVPSRFSGSGSGTDYSLTISNLEQEDIATYFCQQGNMLPWTFGGGTKLEIK
modifications: IgG1 kappa constant regions
As for B1, the “cross reactivity with murine ENPP1” value in the experiment with murine ENPP1 is on record as “significant cross reactivity”. In the experiment with ENPP1 [1], the “binding and inhibitory effects on ENPP1 activity” value is reported as “most potent”. Moreover, in experiment [2] (FIG. 18B), the “PI+ cells (cell death) by flow cytometry” value is given as “significant reduction”. For the same molecule, the “cell death and detachment of cardiac fibroblasts” value is “significantly abrogated cell death” in experiment [2] and “significantly diminished” in experiment [2] (listed as ENPP1mAb). Besides, the “luminescence signal when ENPP1 is added” value with ENPP1 [3] (ATP incubated with luciferase and ENPP1, compared to IgG) was “significantly higher”. Besides, the “inhibition of ENPP1” value with ENPP1 [3] (at nanomolar concentrations) is “potently inhibits”.
